Test results as given in US20200147235A1 (AbbVie / Abbott, published 2020).
Where two headings read alike, the source gives them in different places.

T1: Human CD98 ECD with C-terminal His-tag (human, UniProt P08195 105-529)
T1 construct: also called huCD98 ECD; recombinant human CD98 extracellular domain
T1 sequence: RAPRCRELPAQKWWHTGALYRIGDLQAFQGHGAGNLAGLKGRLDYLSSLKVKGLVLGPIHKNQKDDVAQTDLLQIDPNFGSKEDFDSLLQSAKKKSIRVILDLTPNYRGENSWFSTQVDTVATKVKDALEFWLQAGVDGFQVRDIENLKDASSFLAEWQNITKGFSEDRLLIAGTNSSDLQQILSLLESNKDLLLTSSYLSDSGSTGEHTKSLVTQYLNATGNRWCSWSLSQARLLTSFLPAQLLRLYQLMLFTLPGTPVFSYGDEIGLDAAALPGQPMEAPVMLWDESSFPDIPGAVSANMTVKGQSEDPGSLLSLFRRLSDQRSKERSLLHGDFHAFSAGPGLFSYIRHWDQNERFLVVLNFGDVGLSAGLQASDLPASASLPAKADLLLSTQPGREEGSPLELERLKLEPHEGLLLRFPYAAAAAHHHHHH

T2: Cynomolgus monkey CD98 ECD with C-terminal His-tag (cynomolgus monkey, UniProt P08195 105-529 (human entry))
T2 construct: also called cyCD98 ECD; recombinant cynomolgus monkey CD98 extracellular domain
T2 chain: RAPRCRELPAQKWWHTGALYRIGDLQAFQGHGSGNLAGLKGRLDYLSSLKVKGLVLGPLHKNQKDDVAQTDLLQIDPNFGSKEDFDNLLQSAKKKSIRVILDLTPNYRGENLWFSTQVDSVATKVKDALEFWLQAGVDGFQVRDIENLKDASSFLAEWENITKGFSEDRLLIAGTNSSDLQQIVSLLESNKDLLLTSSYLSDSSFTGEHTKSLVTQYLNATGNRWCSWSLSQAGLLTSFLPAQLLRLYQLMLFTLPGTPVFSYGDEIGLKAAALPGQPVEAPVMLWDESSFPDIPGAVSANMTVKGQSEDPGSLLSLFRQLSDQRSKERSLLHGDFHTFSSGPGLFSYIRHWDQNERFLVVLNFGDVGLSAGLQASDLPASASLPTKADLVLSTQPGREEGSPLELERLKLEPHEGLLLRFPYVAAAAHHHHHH

T3: Human CD98 expressed on stably transfected CHO-K1 cells (human)
T3 construct: also called huCD98; CD98 heavy chain
T3 chain: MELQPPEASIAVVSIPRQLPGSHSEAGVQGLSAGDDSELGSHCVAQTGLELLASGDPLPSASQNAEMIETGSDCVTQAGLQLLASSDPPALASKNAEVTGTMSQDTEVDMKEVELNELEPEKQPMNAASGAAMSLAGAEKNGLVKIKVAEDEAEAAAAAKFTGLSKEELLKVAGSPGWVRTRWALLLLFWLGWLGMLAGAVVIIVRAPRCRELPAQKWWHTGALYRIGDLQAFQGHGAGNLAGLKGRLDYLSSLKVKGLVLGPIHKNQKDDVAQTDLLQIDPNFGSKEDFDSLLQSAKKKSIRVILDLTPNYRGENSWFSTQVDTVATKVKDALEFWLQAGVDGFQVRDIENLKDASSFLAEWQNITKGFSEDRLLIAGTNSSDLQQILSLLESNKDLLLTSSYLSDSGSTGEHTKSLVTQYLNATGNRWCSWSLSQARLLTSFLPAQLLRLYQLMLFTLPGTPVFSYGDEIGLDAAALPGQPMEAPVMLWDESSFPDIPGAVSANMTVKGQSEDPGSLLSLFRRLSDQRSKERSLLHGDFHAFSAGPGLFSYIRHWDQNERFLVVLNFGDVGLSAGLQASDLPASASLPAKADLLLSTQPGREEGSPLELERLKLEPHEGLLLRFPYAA


What was measured:
[1] = biological target: T1, Human CD98 ECD with C-terminal His-tag; experiment: SPR Biacore, anti-Fc capture of mAb, CD98 ECD analyte
Procedure: (§1) The binding kinetics of these purified mouse and rat monoclonal anti-CD98 antibodies for purified recombinant CD98 protein (extracellular domain. ECD) were determined by surface plasmon resonance-based measurements made on Biacore T100/T200 instruments (GE Healthcare, Piscataway, N.J.) at 25° C. using an anti-Fc capture assay approach. Binding kinetic measurements were made in the assay buffer HBS-EP+: 10 mM Hepes, pH 7.4, 150 mM NaCl, 3 mM EDTA, 0.05% Tween 20). For example, approximately 8000 RU of anti-Fc (species specific) polyclonal antibody (Thermo Fisher Scientific Inc. Rockford, Ill.) diluted in 10 mM sodium acetate (pH 4.5) was directly immobilized across a CM5 research grade biosensor chip using a standard amine coupling kit according to manufacturer's instructions and procedures at 25 μg/ml. Unreacted moieties on the biosensor surface were blocked with ethanolamine. The test antibody to be captured as a ligand was diluted in running buffer to ˜0.5 μg/mL and injected over anti-Fc surface at a flow rate of 10 μL/min, CD98 binding and dissociation were observed under a continuous flow rate of 80 μL/min. Human and cynomolgus monkey CD98 ECDs, both with a C-terminal His-tag, are used for this study (Table 3). After each cycle the anti-Fc capture surface was regenerated using 10 mM Glycine-HCl, pH 1.5. During the assay, all measurements were referenced against the capture surface alone (i.e., with no captured test antibody) and buffer-only injections (no antigen) were used for double referencing. For kinetic analysis, rate equations derived from the 1:1 Langmuir binding model were fitted simultaneously, globally and with mass transfer term included to multiple referenced antigen binding curves using Biacore T100T200 Evaluation software.
(§2) Briefly, binding kinetics of anti-CD98 chimera mAbs for human and cynomolgus CD98 ECDs were determined by surface plasmon resonance-based measurements as described in Example 4.

[2] = biological target: T2, Cynomolgus monkey CD98 ECD with …; experiment: as above
Procedure: as §1, §2

[3] = biological target: T4, Cynomolgus monkey CD98 expressed on stably transfected 3T12 cells (cynomolgus monkey); experiment: flow cytometry, 3T12 cells expressing cynomolgus CD98
T4 construct: whole, on cells; also called cyCD98
Procedure: (§3) Briefly, binding kinetics of anti-CD98 chimera mAbs for human and cynomolgus CD98 ECDs were determined by surface plasmon resonance-based measurements as described in Example 4. Table 10 reported the association and dissociation rate constants for CD98 binding, kₐ (M⁻¹s⁻¹) and kd (s⁻¹), and the equilibrium dissociation constant KD (M) of the interaction between antibodies and the target antigen. Binding of anti-CD98 chimera mAbs for CD98 on cell surface was evaluated by flow cytometry against CHO-K1 cell line stably transfected to express human CD98 and 3T12 cell line stably transfected to express cynomolgus monkey CD98.

[4] = biological target: T3, Human CD98 expressed on stably …; experiment: flow cytometry, CHO-K1 cells expressing human CD98
Procedure: as §3

[5] = biological target: T1, Human CD98 ECD with C-terminal His-tag; experiment: SPR Biacore, anti-Fc capture of mAb, CD98 ECD analyte; kd set to assay limit
Procedure: as §1, with “During the assay, all measurements were referenced against the capture surface alone (i.e., with no captured test antibody) and buffer-only injections (no antigen) were used for double referencing. For kinetic analysis, rate equations derived from the 1:1 Langmuir binding model were fitted simultaneously, globally and with mass transfer term included to multiple referenced antigen binding curves using Biacore T100T200 Evaluation software.” left out

[6] = biological target: T2, Cynomolgus monkey CD98 ECD with …; experiment: as above
Procedure: as §1, with “During the assay, all measurements were referenced against the capture surface alone (i.e., with no captured test antibody) and buffer-only injections (no antigen) were used for double referencing. For kinetic analysis, rate equations derived from the 1:1 Langmuir binding model were fitted simultaneously, globally and with mass transfer term included to multiple referenced antigen binding curves using Biacore T100T200 Evaluation software.” left out

[7] = biological target: T1, Human CD98 ECD with C-terminal His-tag; experiment: SPR Biacore, anti-Fc capture of mAb, CD98 ECD analyte; remark: listed apart in the source
Procedure: as §1

[8] = biological target: T2, Cynomolgus monkey CD98 ECD with …; experiment: as above
Procedure: as §1

| Kd [1] [nM] | koff [1] [s⁻¹] | kon [1] [M⁻¹ s⁻¹] | Kd [2] [nM] | koff [2] [s⁻¹] | kon [2] [M⁻¹ s⁻¹] | EC50 [3] [nM] | EC50 [4] [nM] | koff [5] [s⁻¹] | koff [6] [s⁻¹] | Kd [7] [nM] | kon [7] [M⁻¹ s⁻¹] | Kd [8] [nM] | kon [8] [M⁻¹ s⁻¹] | Binder |
| --- | --- | --- | --- | --- | --- | --- | --- | --- | --- | --- | --- | --- | --- | --- |
| 4.2 | 0.00028 | 67000 | 17 | 0.0005 | 28000 | 10.1 | 2.61 |  |  |  |  |  |  | Recombinant anti-CD98 chimeric antibody chAb8 (antibody, human IgG1, V domains shown) VH: EVQLVESGGGLVQPGRSLKLSCAASGFTFSDYAMAWVRQAPKKGLEWVASIIYDGRGTYYRDSVKGRFTISRDNAKSTLYLQMDSLRSEDTATYYCARQGDGTYYYWGYFDYWGQGVMVTVSS VL: DIVMTQSPSSLAVSAGETVTINCKSSQSLLSSGNQKNYLAWYQQKPGQSPKLLIYWASTRQSGVPDRFIGSGSGTDFTLTINSVQAEDLAIYYCQQYYDTPYTFGAGTKLELK |
| 1.1 | 4.6e-05 | 43000 | 3.7 | 7.4e-05 | 20000 | 20.3 | 6.63 |  |  |  |  |  |  | Recombinant anti-CD98 chimeric antibody chAb15 (antibody, human IgG1, V domains shown) VH: EVQLVESGGGLVQPGRSLKLSCAASGFTFSDYTMAWVRQAPKKGLEWVATIIYDGRGTYYRDSVKGRFTISRDNAKSTLYLQMDSLRSEDTATYYCARQSDGTYYYWGYFDYWGQGVMVTVSS VL: DIVMTQSPSSLAVSAGETVTINCKSSQSLLFSGNQKNYLAWYQQKPGQSPKLLIYWASTRQSGVPDRFIGSGSGTDFTLTIRSVQAEDLAIYYCQQYYDSPYTFGAGTKLELK |
| 3.3 | 0.00033 | 100000 | 11 | 0.00064 | 59000 | 10.8 | 6.45 |  |  |  |  |  |  | Recombinant anti-CD98 chimeric antibody chAb10 (antibody, human IgG1, V domains shown) VH: EVQLVESGGGLVQPGRSLKLSCAASGFTFSDYAMAWVRQAPKKSLEWVATIIYDGRGTYCRDSVKGRFTISRDNAKSTLYLQMDSLRSEDTATYYCARQGDGTYHYWGYFDYWGQGVMVTVSS VL: DIVMTQSPSSLAVSAGETVTINCKSSQSLLSSGNQKNYLAWYQQKPGQSPKLLIYWASTRQSGVPDRFIGSGSGTDFTLTISSVQAEDLAIYYCQQYYDTPYTFGAGTKVDLK |
| 1.2 | 6.3e-05 | 54000 | 3.8 | 9.3e-05 | 24000 | 14.9 | 2.89 |  |  |  |  |  |  | Recombinant anti-CD98 chimeric antibody chAb12 (antibody, human IgG1, V domains shown) VH: EVQLVESGGGLVQPGRSLKLSCAASGFTFSDYAMAWVRQAPKKGLEWVASIIYDGRGTYYRDSVKGRFTISRDNAKSTLYLQMDSLRSEDTATYYCARQGDGTYYYWGSFDYWGQGVMVTVSS VL: DIVMTQSPSSLAVSAGETVTINCKSSQSLLSSGNQKNYLAWYQQKPGQSPKLLIYWASTRQSGVPDRFIGSGSGTDFTLTISSVQAEDLAIYHCQQYYDTPYTFGAGTKLELK |
| 28 | 0.0013 | 45000 | 110 | 0.002 | 18000 | 16.9 | 4.57 |  |  |  |  |  |  | Recombinant anti-CD98 chimeric antibody chAb11 (antibody, human IgG1, V domains shown) VH: EVQLVESGGGLVQPGRSLKLSCAASGFTFSDYAMAWVRQAPKKGLEWVAGIIYDGRGTYYRDSVKGRFTISRDNAKSTLYLQMDSLRSEDTATYYCARQGDGTYYYWGYFDYWGQGVMVTVSS VL: DIVMTQSPSSLAVSAGETVTINCRSSQSLLSSGNQKNYLAWYQQKPGQSPKLLIYWASTRQSGVPDRFIGSGSGTDFTLTISSVQAEDLAIYYCQQYYDTPYTFGAGTKLELK |
|  |  |  |  |  |  |  |  | ≤ 5e-06 | ≤ 5e-06 | ≤ 0.059 | 85000 | ≤ 0.12 | 43000 | Anti-CD98 murine hybridoma antibody Ab1 (antibody, V domains shown) VH: EVKLVESGGGLVQPGGSLRLSCATSGFTFTDYYMSWVRQPPGKALEWLGFIRNPANVYTTEYSASVKGRFTISRDNSQSILYLQMNTLRAEDSATYYCARASYGNSEGWFAYWGQGTLVTVSA VL: DIVMSQSPSSLAVSVGEKVTMSCKSSQNLLYNNNQKNYLAWYQQKPGQSPKLLIYWASTRESGVPDRFTGSGSGTDFTLTISSVKAEDLAVYYCQQYYSYPRTFGGGTKLEIK |
| 0.45 | 6.2e-05 | 140000 | 3.5 | 0.00022 | 63000 | 6.49 | 2.56 |  |  |  |  |  |  | Recombinant anti-CD98 chimeric antibody chAb7 (antibody, human IgG1, V domains shown) VH: QVQLKESGPGLVQPSQTLSLTCTVSGFSLSTYGVIWVRQPPGKGLEWMGVIWANGNTNYNSTLKSRLSISRDTSKSQVYLKMNSLQTEDTATYYCARHYYDGTYYYGYFDYWGQGVMVTVSS VL: DIVMTQTPSSQAVSAGEKVTMNCKSSQSLLYSENKKNYLAWYQQKPGQSPKLLIYWASTRESGVPDRFIGSGSGTDFTLTISSVQAEDLAVYYCQQYYYFPYTFGPGTKLELK |
| 3.9 | 8.4e-05 | 22000 | 110 | 0.0014 | 12000 | 18 | 3.75 |  |  |  |  |  |  | Recombinant anti-CD98 chimeric antibody chAb14 (antibody, human IgG1, V domains shown) VH: EVKLQQSGDELVRPGASVKISCKASGYTFTSYSMHWVKERPGQGLEWIGAIFPIIGTTEYNQKFKGKATLTADKSSNTANMELSRLTSEDSAVYYCARVYLSYFDYWGQGVMVTVSS VL: DIQMTQSPSFLSASVGDRVTINCKASQNINKYLDWYQRKHGEAPKLLIYNTNNLQTGIPSRFSGSGSGTDYTLTISSLQPEDVATYFCLQHSSRYTFGAGTKLELK |
